Data from the supplement of paper PMC10567573.
± gives the standard deviation.

Assay: protein stability index of a GFP-peptide fusion (GPS, HEK-293T) (PSI 1-6); higher = more stable
[1] = treatment: DMSO, c terminus: a fixed tail appended
[2] = treatment: MLN4924 1 uM, 8 h, c terminus: a fixed tail appended
[3] = treatment: DMSO, c terminus: native
[4] = treatment: MLN4924 1 uM, 8 h, c terminus: native
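Also: 24-mer peptide tiles fused after GFP, lentivirally expressed, FACS-sorted into six equal bins by GFP/DsRed ratio, decoded by Illumina sequencing, PSI is the read-weighted mean bin number.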

Sequence	protein stability index [1]	protein stability index [2]	protein stability index [3]	protein stability index [4]
AANKAVKCAEVIIPLLSSVNVSDR [ANKRD44]	2.9 ± 0.27	2.98 ± 0.23		
VADMMYFCQMLAVVETINAAIGVT [HACD3]	3.06 ± 0.42	3.2 ± 0.36		
PPLLGTFPRDHTSLALVQNGDVSA [ANKRD40]	4.57 ± 0.21	4.4 ± 0.41		
STSLPDPGDFDRNVPRICGVCGDR [VDR]	4.6 ± 0.2	4.56 ± 0.55		
CLPPEPSPDDPESVKIIFKLPNDS [FAF2]	4.76 ± 0.17	4.82 ± 0.13		
PGLLSLATTSASDSLKPEQLDIEE [TFE3]	5.35 ± 0.23	5.55 ± 0.17		
CSGTELSLAHCRHDGEDVACPQGG [LOXL2]	4.78 ± 0.73	4.3 ± 0.24		
ASSASLEPMWSGSTMRRMALRPTA [EMID1]	3.43 ± 0.23	3.64 ± 0.43		
LWSDPMAQEGCKANTIRGGGCYFG [PPEF2]	2.68 ± 0.73	2.5 ± 0.44		
VRILLRRGVDVSLQGKDAWLPLHY [RIPK4]	2.99 ± 1.7	2.29 ± 0.44		
RDHHSTHYRASEEEPEYGEEIKGY [CHGB]	5.1 ± 0.25	5.05 ± 0.13		
RERFMECLMIGRDLVRLLQNVARI [INTS3]	2.31 ± 0.28	2.54 ± 0.31		
EPPQDSHSRKTVLIKTIETRNGEV [PRPH]	4.67 ± 0.28	4.79 ± 0.4		
VLRVEQQPHLPLLSTLAGIRVMVH [SCNN1D]	2.31 ± 0.25	2.26 ± 0.082		
LAEWEANPLICPVCTKYNLRITSG [RPAIN]	3.35 ± 0.36	3.31 ± 0.36		
EPSSDPSLLGEPCAGPGFTHNIAH [SPAG8]	4.65 ± 0.074	4.52 ± 0.22		
YPPFWDEDQHRLYQQIKAGAYDFP [CAMK2D]	2.56 ± 0.21	2.64 ± 0.25		
SYRIHNGQKLVVPGLLGSMALSNH [FBXO3]	2.35 ± 0.27	2.43 ± 0.31		
RSEALAVDGAGKPGAEEAQDPEGK [CHGA]	5.61 ± 0.15	5.561 ± 0.045		
EKQMEEKRRANQKSSAQGPIPWFL [PPEF2]	3.71 ± 0.17	3.68 ± 0.32		
VTETEETQEKKAESKEPIEEEPTG [SDE2]	5.68 ± 0.19	5.85 ± 0.11		
KRKGIKSSIGRLFGKKEKGRLIQL [PPFIA4]	2.46 ± 0.31	2.22 ± 0.22		
FEKWEQETAAGKGKGEARARLKRS [SMTNL2]	4.87 ± 0.15	5.07 ± 0.21		

Sequence	protein stability index [1]	protein stability index [2]	protein stability index [3]	protein stability index [4]
YSLELGKAIKQKLWEALCSQGAIS [C22orf31]	2.4 ± 0.45	2.63 ± 0.29		
QTVGVGRGRFTTYEIRVKTNLPIF [SNX3]	2.83 ± 0.067	3.02 ± 0.22		
RDHIPRGKEELESLGGGKTPPGR [MOG]			3.87 ± 0.1	4.09 ± 0.42
KRGGNCPAPAPLVPQDPDLEEEEE [ZBTB22]	5.56 ± 0.26	5.59 ± 0.21		
TQKLSHSTKPSGSPLEEKHDQCKC [MATN2]	5.15 ± 0.38	4.94 ± 0.29		
DSRRIFVGQDNGAVMEFHVSEDFN [WDFY1]	4.07 ± 0.32	4.22 ± 0.11		
EFPADISSITEAVPSESEPPALQN [NFE2L1]	5.31 ± 0.36	5.44 ± 0.22		
AWAAHTRLFQVVGKTDDTLALLNL [TMEM175]	2.25 ± 0.13	2.03 ± 0.042		
MALKTSLGSVQFMEQFCWPHLRSF	3.01 ± 0.86	2.69 ± 0.73		
PMAADEGSAEKQAGEAHMAADGET [EHMT1]	5.6 ± 0.17	5.66 ± 0.082		
VVEEAKCCCFFKRKRKKTAQRHK [CSNK1G1]			4.18 ± 0.33	4.69 ± 0.42
PSGTPELEVPKPGQPSEPEHGPSP [CHIT1]	5.52 ± 0.25	5.47 ± 0.18		
TWHHTKPLLPSDLRRTGCAALRIA [GAN]	2.45 ± 0.33	2.48 ± 0.24		
PMVARYIRINPQSWFDNGSICMRM [CPXM2]	2.82 ± 1.1	1.95 ± 0.38		
RVLFIKDVIGDEICCWSFYGQGRK [KCTD10]	1.89 ± 0.51	2.38 ± 0.23		
DVKDWWLFGFYFCMPLVCTAIFYT [EDNRA]	2.76 ± 0.45	3.56 ± 0.84		
DKMEGNPICVQIPWDKNPEALAKW [CRY1]	4.54 ± 0.094	4.33 ± 0.24		
RAACFDGHLEVVRYLVGEHQADLE [FEM1A]	3.31 ± 0.27	3.39 ± 0.25		
PQPLSFKEPPLLLGVLHPNTKLRQ [APMAP]	3.48 ± 0.17	3.59 ± 0.2		
DPHNSRRGFFFSHVGWLLVRKHPA [SCD]	2.33 ± 0.27	2.3 ± 0.35		
EKEVLRRERAVEWRERAVEKRERA [ZBED2]	4.93 ± 0.44	4.95 ± 0.27		
REDNSGSDVLIGDILVLLGASLYA [SLC35F2]	2.79 ± 0.18	2.99 ± 0.61		
VSGKCEPIGCDGVLFSTHTLDKCG [ADAMTSL2]	3.41 ± 0.4	3.35 ± 0.29		

Sequence	protein stability index [1]	protein stability index [2]	protein stability index [3]	protein stability index [4]
GGGGQGDGGSSLASGSTQRQPPPP [FBXO28]	5.38 ± 0.19	5.27 ± 0.29		
PTFMIAVFLPIVVLIFKSILFLPC [STEAP1]	3.22 ± 0.3	3.3 ± 0.46		
MDYKSSLIQDGNPMENLEKQLICP [TRIM63]	4.06 ± 0.29	4.14 ± 0.16		
EAIPILRAALKLEPSNKTIHAELS [FKBP8]	2.49 ± 0.32	2.65 ± 0.14		
GDVMFTGTADGRVVKLENGEIETI [APMAP]	4.73 ± 0.51	5.06 ± 0.29		
GMAFFKMREMFFEDHIDDAKYCGH [CNOT7]	2.35 ± 0.2	2.36 ± 0.16		
VEGFRVTLVDEGDLYNWEVAIFGP [CDC34]	3.11 ± 0.82	2.85 ± 0.95		
ERYFIPVSCFLTFNIFDWLGRSLT [SLC29A1]	2.77 ± 0.26	3.08 ± 0.46		
YYPTSSSTSFMSSSSSSSSWLTRR [EMD]	3.23 ± 0.19	3.29 ± 0.39		
KLGAPLSGLQGLPECTRCGHGIVG [PDLIM4]	2.65 ± 0.25	2.75 ± 0.36		
FDRVDENNPEYLRERNMAPDLRQD [ADD1]	5.1 ± 0.064	5.32 ± 0.25		
IQDVVQPLTLQVQRPLVSVTVSDA [AUP1]	3.56 ± 0.28	3.58 ± 0.22		
SELRTKVQEQQKQLQDQDQKLLEQ [FBXO28]	5.5 ± 0.19	5.481 ± 0.034		
LFLSHVLALGLGIYIGKRLSTPSA [BNIP3L]	2.86 ± 0.86	2.94 ± 0.55		
LDHDIFQLIDPDENKENEAFEFKK [CDC25A]	4.07 ± 0.083	4.13 ± 0.52		
EFKRLASSKAHTSRFISANLPCNK [PTPRD]	2.88 ± 0.1	2.97 ± 0.41		
FLTTAIRPHGIFGPRDPQLVPILI [NSDHL]	2.69 ± 0.53	2.42 ± 0.41		
AASVRMRGEAEAFAIGARARAEAE [FLOT1]	5.32 ± 0.17	4.96 ± 0.23		
RASATTTITTAAATSVTVPGAGVP [ZBTB22]	4.49 ± 0.19	4.45 ± 0.3		
IKRLWKDSGVQACFNRSREYQLND [GNAI1]	2.4 ± 0.41	2.44 ± 0.72		
TCCYFKFIIEYYNIRPADSRWVRD [FBXO34]	2.84 ± 1.2	2.29 ± 0.54		
TTTHAPPGVHRRYSALREESAKDW [PPFIA4]	4.23 ± 0.3	4.47 ± 0.15		
SNFEQTQIQEFKEAFTLMDQNRDG [MYL5]	5.11 ± 0.2	4.93 ± 0.33		

Sequence	protein stability index [1]	protein stability index [2]	protein stability index [3]	protein stability index [4]
ARHLREYQELLNVKMALDIEIATY [PRPH]	2.34 ± 0.4	2.4 ± 0.37		
QTVDGKHQDLKYISPETMVALLTG [CDC25B]	2.77 ± 0.43	2.8 ± 0.33		
SLDFTKKILHTAWHPAENIIAIAA [PPP2R2C]	2.58 ± 0.59	2.29 ± 0.31		
PPARGPRMSYGGSTCHAYSNTRDR [RBMY1A1]	4.1 ± 0.098	4.07 ± 0.12		
RVVDGTPCSPDSSSVCVQGRCIHA [ADAMTS4]	4.21 ± 0.35	4.39 ± 0.16		
SKRNIKKGAVPRSIPNLAEVKKKG [HDAC6]	4.26 ± 0.47	4.46 ± 0.44		
DAKDAARDMNGKSLDGKAIKVEQA [RBMX]	5.36 ± 0.41	5.37 ± 0.39		
FFLAILSCSEICYTFIIVPKMLVD [OR10K2]	3.42 ± 0.36	2.89 ± 0.28		
TSTPPPASVINNMLAEIFCQTGGV [ZBED1]	2.84 ± 0.076	2.73 ± 0.23		
ITFSGRPSRVHASEVESAVWYVKK [FBXO39]	2.41 ± 0.21	2.68 ± 0.32		
LICEGLYPASIVDEPTFKVLLKTA [ZBED1]	2.25 ± 0.28	2.31 ± 0.24		
NVSVMHKSLDNMPNDEHWKALSRK [FBXO33]	4.19 ± 0.089	4.03 ± 0.14		
CSSSDDDTDVDMEGLRRRRGREAG [PBXIP1]	5.3 ± 0.28	5.26 ± 0.21		
GRTHQWKPLYPDDYVHISSKPCDL [ADAMTSL2]	3.25 ± 0.3	3.42 ± 0.093		
NIAIMTEEPELSPAYLISEAMRRS [GFOD1]	3.5 ± 0.27	3.72 ± 0.2		
RVLRQPRPALAQQAQGARAGGSAR [GMCL1]	5.03 ± 0.23	4.93 ± 0.19		
SKETRLTLMEEVLLLGLKDREGYT [GOLPH3]	2.8 ± 0.22	2.75 ± 0.28		
YERTLGQYQYERYGAVELSGAGRR [IRX6]	3.75 ± 0.36	3.81 ± 0.3		
CVPAHPPPCAWACPVPAHRRGSWR [CTBP1-DT]	2.56 ± 0.19	2.77 ± 0.18		
HSFFPDAFDYNSLSPTQRQKNFEL [SMTNL2]	3.35 ± 0.19	3.44 ± 0.4		
